According to patent US20210230570A1:

Legend:
[1] = molecular target: Factor VIIIa (recombinant FVIII, Kogenate FS, activated with alpha-thrombin) (UniProt P00451); assay: apparent KD (KD-app): FX activation rate (Spectrafluor FXa fluorescence) vs FVIIIa titration, PC/PS vesicles, Ca2+; indirect functional assay
[2] = molecular target: Factor VIIIa (recombinant FVIII, Kogenate FS, activated with alpha-thrombin) (UniProt P00451); assay: functional KD-app: FVIIIa titrated (0-400 nM) on 2 pM FIXa, PC/PS vesicles, 500 nM FX, fluorogenic FXa substrate
[3] = molecular target: plasma purified human AT-III (antithrombin III), in complex with low molecular weight heparin (human) (UniProt P01008); assay: K0.5: AT-III conc. for 50% inhibition of FIXa cleavage of Pefafluor FIXa; AT-III/LMWH, 1 uM LMWH, 1 min
Sequence of plasma purified human AT-III (antithrombin III), in complex with low molecular weight heparin (human) (P01008 33-464, one chain of several): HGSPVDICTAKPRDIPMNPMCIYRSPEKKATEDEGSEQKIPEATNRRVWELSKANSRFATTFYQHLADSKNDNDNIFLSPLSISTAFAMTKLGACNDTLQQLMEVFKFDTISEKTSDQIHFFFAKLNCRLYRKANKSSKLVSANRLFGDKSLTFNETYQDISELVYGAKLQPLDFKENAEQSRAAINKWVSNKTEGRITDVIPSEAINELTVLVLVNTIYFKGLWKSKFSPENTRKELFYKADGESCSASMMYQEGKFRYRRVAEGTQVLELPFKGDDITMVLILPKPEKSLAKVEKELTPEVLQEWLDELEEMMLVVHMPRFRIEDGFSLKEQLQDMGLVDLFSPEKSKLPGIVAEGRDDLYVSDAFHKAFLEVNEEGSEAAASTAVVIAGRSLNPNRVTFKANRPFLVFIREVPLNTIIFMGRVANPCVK

Sequence of Factor VIIIa (recombinant FVIII, Kogenate FS, activated with alpha-thrombin) (P00451 20-391, chain 1 of 3): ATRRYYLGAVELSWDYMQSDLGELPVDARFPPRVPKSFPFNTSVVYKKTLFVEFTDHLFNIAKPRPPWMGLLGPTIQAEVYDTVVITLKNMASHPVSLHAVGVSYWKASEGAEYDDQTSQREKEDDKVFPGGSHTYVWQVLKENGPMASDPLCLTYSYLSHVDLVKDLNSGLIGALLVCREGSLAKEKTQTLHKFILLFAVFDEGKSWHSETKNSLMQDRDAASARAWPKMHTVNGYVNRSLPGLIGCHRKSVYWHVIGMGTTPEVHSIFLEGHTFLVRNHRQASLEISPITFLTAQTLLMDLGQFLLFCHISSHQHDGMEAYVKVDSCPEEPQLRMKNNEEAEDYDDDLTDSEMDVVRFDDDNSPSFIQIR
Sequence of Factor VIIIa (recombinant FVIII, Kogenate FS, activated with alpha-thrombin) (P00451 392-759, chain 2 of 3): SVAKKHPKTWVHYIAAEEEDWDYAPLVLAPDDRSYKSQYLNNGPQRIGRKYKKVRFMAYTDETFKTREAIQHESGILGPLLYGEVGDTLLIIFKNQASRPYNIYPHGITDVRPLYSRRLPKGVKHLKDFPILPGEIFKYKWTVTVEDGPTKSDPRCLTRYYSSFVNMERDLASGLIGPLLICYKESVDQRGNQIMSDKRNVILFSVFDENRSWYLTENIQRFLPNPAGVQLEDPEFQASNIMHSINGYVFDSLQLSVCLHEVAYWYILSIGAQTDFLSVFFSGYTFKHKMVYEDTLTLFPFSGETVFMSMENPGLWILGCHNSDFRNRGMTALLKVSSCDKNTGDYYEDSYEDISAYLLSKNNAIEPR
Sequence of Factor VIIIa (recombinant FVIII, Kogenate FS, activated with alpha-thrombin) (P00451 1709-2351, chain 3 of 3): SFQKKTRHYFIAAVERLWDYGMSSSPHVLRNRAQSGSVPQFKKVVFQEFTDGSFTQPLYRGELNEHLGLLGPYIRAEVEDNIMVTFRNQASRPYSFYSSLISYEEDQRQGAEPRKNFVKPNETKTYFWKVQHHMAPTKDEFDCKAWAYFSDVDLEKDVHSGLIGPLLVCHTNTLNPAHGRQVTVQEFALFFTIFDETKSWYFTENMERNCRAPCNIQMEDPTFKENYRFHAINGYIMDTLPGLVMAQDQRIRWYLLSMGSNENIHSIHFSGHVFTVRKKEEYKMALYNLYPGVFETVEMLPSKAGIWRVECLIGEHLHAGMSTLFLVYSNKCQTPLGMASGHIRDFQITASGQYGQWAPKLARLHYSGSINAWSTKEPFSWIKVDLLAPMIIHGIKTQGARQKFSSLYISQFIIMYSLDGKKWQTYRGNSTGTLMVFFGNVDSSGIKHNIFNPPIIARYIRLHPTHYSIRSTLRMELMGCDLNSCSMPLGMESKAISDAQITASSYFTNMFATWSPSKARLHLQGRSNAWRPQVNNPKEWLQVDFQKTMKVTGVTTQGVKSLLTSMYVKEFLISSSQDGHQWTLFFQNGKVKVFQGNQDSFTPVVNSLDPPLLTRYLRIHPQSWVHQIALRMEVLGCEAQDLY

| Substance | Kd [1] | Kd [2] | further results |
| --- | --- | --- | --- |
| FIXa variant V202Y (from UniProt P00740 47-191; P00740 227-461) (enzyme) | 0.0615 µM |  |  |
| FIXa variant A262S (from UniProt P00740 47-191; P00740 227-461) (enzyme) | 0.0941 µM |  |  |
| FIXa variant K316N (from UniProt P00740 47-191; P00740 227-461) (enzyme) | 0.0664 µM |  |  |
| FIXa variant E410S (from UniProt P00740 47-191; P00740 227-461) (enzyme) | 0.0996 µM |  |  |
| FIXa variant E410N (from UniProt P00740 47-191; P00740 227-461) (enzyme) | 0.0742 µM |  |  |
| FIXa variant D104N/K106S/Y155F/R318Y/R338E/R403E/E410N (from UniProt P00740 47-191; P00740 227-461) (enzyme) | 0.0616 µM |  |  |
| FIXa variant K400A (from UniProt P00740 47-191; P00740 227-461) (enzyme) | 0.0989 µM |  |  |
| FIXa-R338E/T343R/E410N (from UniProt P00740 47-191; P00740 227-461) (enzyme) |  | 0.0075 µM |  |
| FIXa-K228N/R318Y/R338E/T343R/R403E/E410N (from UniProt P00740 47-191; P00740 227-461) (enzyme) |  | 0.0175 µM |  |
| FIXa-K228N/K247N/N249S/R318Y/R338E/T343R/E410N (from UniProt P00740 47-191; P00740 227-461) (enzyme) |  | 0.0078 µM |  |
| FIXa-Y155F/R318Y/T343R/E410N (from UniProt P00740 47-191; P00740 227-461) (enzyme) |  | 0.038 µM |  |
| FIXa variant R318Y/R338E/R403E (from UniProt P00740 47-191; P00740 227-461) (enzyme) | 0.34 µM |  |  |
| FIXa-R338E/T343R/R403E (from UniProt P00740 47-191; P00740 227-461) (enzyme) |  | 0.055 µM |  |
| FIXa variant D104N/K106S/R318Y/R338E/E410N (from UniProt P00740 47-191; P00740 227-461) (enzyme) | 0.0124 µM |  |  |
| FIXa variant R403E/E410N (from UniProt P00740 47-191; P00740 227-461) (enzyme) | 0.91 µM |  |  |
| FIXa-R318Y/R338E/T343R/E410N (from UniProt P00740 47-191; P00740 227-461) (enzyme) |  | 0.0061 µM |  |
| FIXa variant T148A (from UniProt P00740 47-191; P00740 227-461) (enzyme) | 0.0797 µM |  |  |
| FIXa-Y155F/K247N/N249S/R338E/T343R (from UniProt P00740 47-191; P00740 227-461) (enzyme) |  | 0.0154 µM |  |
| FIXa variant N346D (from UniProt P00740 47-191; P00740 227-461) (enzyme) | 0.127 µM |  |  |
| FIXa variant T241N/H243S (from UniProt P00740 47-191; P00740 227-461) (enzyme) | 0.0755 µM |  |  |

| Substance | Kd [1] | Kd [2] | further results |
| --- | --- | --- | --- |
| FIXa-R318Y/R338E/T343R/R403E/E410S (from UniProt P00740 47-191; P00740 227-461) (enzyme) |  | 0.0232 µM |  |
| FIXa variant K400A/R403A (from UniProt P00740 47-191; P00740 227-461) (enzyme) | 0.13 µM |  |  |
| FIXa-Y155F/R338E/T343R/R403E/E410N (from UniProt P00740 47-191; P00740 227-461) (enzyme) |  | 0.0285 µM |  |
| FIXa variant R338E/E410N (from UniProt P00740 47-191; P00740 227-461) (enzyme) | 0.0041 µM |  |  |
| FIXa-Y155F/K247N/N249S/R318Y/R338E/T343R/R403E/E410N (from UniProt P00740 47-191; P00740 227-461) (enzyme) |  | 0.0153 µM |  |
| FIXa variant D104N/K106S/I251S (from UniProt P00740 47-191; P00740 227-461) (enzyme) | 0.305 µM |  |  |
| FIXa-R338E/T343R/R403E/E410N (from UniProt P00740 47-191; P00740 227-461) (enzyme) |  | 0.0294 µM |  |
| FIXa variant R338E/R403E (from UniProt P00740 47-191; P00740 227-461) (enzyme) | 0.183 µM |  |  |
| FIXa variant H257E (from UniProt P00740 47-191; P00740 227-461) (enzyme) | 0.0813 µM |  |  |
| FIXa variant K400E/R403E (from UniProt P00740 47-191; P00740 227-461) (enzyme) | 0.298 µM |  |  |
| BeneFIX Coagulation FIX (T148A), activated (FIXa) (from UniProt P00740 47-191; P00740 227-461) (enzyme) | 0.0902 µM |  |  |
| FIXa-R318Y/T343R/R403E/E410N (from UniProt P00740 47-191; P00740 227-461) (enzyme) |  | 0.0841 µM |  |
| FIXa variant E239N (from UniProt P00740 47-191; P00740 227-461) (enzyme) | 0.0773 µM |  |  |
| FIXa variant R312A (from UniProt P00740 47-191; P00740 227-461) (enzyme) | 0.0529 µM |  |  |
| FIXa variant S319N/L321S (from UniProt P00740 47-191; P00740 227-461) (enzyme) | 0.0524 µM |  |  |
| Catalyst Biosciences WT FIXa (recombinant wild-type FIXa) (from UniProt P00740 47-191; P00740 227-461) (enzyme) | 0.0955 µM |  |  |
| FIXa variant R338E (from UniProt P00740 47-191; P00740 227-461) (enzyme) | 0.043 µM |  |  |
| FIXa-Y155F/K247N/N249S/R318Y/R338E/T343R/E410N (from UniProt P00740 47-191; P00740 227-461) (enzyme) |  | 0.0139 µM |  |
| FIXa-Y155F/R338E/T343R/E410N (from UniProt P00740 47-191; P00740 227-461) (enzyme) |  | 0.0085 µM |  |
| FIXa variant R403E (from UniProt P00740 47-191; P00740 227-461) (enzyme) | 0.654 µM |  |  |

| Substance | Kd [1] | Kd [2] | further results |
| --- | --- | --- | --- |
| FIXa-K228N/K247N/N249S/R318Y/R338E/T343R/R403E/E410N (from UniProt P00740 47-191; P00740 227-461) (enzyme) |  | 0.0291 µM |  |
| FIXa-R318Y/R338E/T343R (from UniProt P00740 47-191; P00740 227-461) (enzyme) |  | 0.0098 µM |  |
| FIXa variant R338E/R403E/E410N (from UniProt P00740 47-191; P00740 227-461) (enzyme) | 0.0549 µM |  |  |
| FIXa variant R312L (from UniProt P00740 47-191; P00740 227-461) (enzyme) | 0.0689 µM |  |  |
| Plasma Purified FIXa (from UniProt P00740 47-191; P00740 227-461) (enzyme) |  |  | IC50 [3]: 0.0202 µM |
| FIXa-Y155F/R318Y/R338E/T343R/E410N (from UniProt P00740 47-191; P00740 227-461) (enzyme) |  | 0.0074 µM |  |
| FIXa-K247N/N249S/R318Y/R338E/T343R (from UniProt P00740 47-191; P00740 227-461) (enzyme) |  | 0.0147 µM |  |
| FIXa variant R318E (from UniProt P00740 47-191; P00740 227-461) (enzyme) | 0.067 µM |  |  |
| FIXa-Y155F/R338E/T343R/R403E (from UniProt P00740 47-191; P00740 227-461) (enzyme) |  | 0.0721 µM |  |
| FIXa variant R318Y (from UniProt P00740 47-191; P00740 227-461) (enzyme) | 0.192 µM |  |  |
| FIXa variant D203Y (from UniProt P00740 47-191; P00740 227-461) (enzyme) | 0.0774 µM |  |  |
| FIXa-Y155F/K228N/K247N/N249S/R318Y/R338E/T343R/R403E/E410N (from UniProt P00740 47-191; P00740 227-461) (enzyme) |  | 0.037 µM |  |
| FIXa variant R312Y (from UniProt P00740 47-191; P00740 227-461) (enzyme) | 0.0852 µM |  |  |
| FIXa variant R318Y/R338E/E410N (from UniProt P00740 47-191; P00740 227-461) (enzyme) | 0.0077 µM |  |  |
| FIXa variant R318Y/R338E/R403E/E410N (from UniProt P00740 47-191; P00740 227-461) (enzyme) | 0.047 µM |  |  |
| FIXa-Y155F/R318Y/R338E/T343R (from UniProt P00740 47-191; P00740 227-461) (enzyme) |  | 0.0084 µM |  |
| FIXa variant K293A (from UniProt P00740 47-191; P00740 227-461) (enzyme) | 0.0866 µM |  |  |
| FIXa-Y155F/K247N/N249S/R338E/E410N (from UniProt P00740 47-191; P00740 227-461) (enzyme) |  | 0.0249 µM |  |
| FIXa variant R312Q (from UniProt P00740 47-191; P00740 227-461) (enzyme) | 0.0452 µM |  |  |
| FIXa variant A204M (from UniProt P00740 47-191; P00740 227-461) (enzyme) | 0.0606 µM |  |  |
